Measurements as given in IntAct's records for PubMed 16990850.

B1: Serine/threonine-protein kinase/endoribonuclease IRE1 (Saccharomyces cerevisiae), P32361 (parent)
chain: MRLLRRNMLVLTLLVCVFSSIISCSIPLSSRTSRRQIVEDEVASTKKLNFNYGVDKNINSPIPAPRTTEGLPNMKLSSYPTPNLLNTADNRRANKKGRRAANSISVPYLENRSLNELSLSDILIAADVEGGLHAVDRRNGHIIWSIEPENFQPLIEIQEPSRLETYETLIIEPFGDGNIYYFNAHQGLQKLPLSIRQLVSTSPLHLKTNIVVNDSGKIVEDEKVYTGSMRTIMYTINMLNGEIISAFGPGSKNGYFGSQSVDCSPEEKIKLQECENMIVIGKTIFELGIHSYDGASYNVTYSTWQQNVLDVPLALQNTFSKDGMCIAPFRDKSLLASDLDFRIARWVSPTFPGIIVGLFDVFNDLRTNENILVPHPFNPGDHESISSNKVYLDQTSNLSWFALSSQNFPSLVESAPISRYASSDRWRVSSIFEDETLFKNAIMGVHQIYNNEYDHLYENYEKTNSLDTTHKYPPLMIDSSVDTTDLHQNNEMNSLKEYMSPEDLEAYRKKIHEQISRELDEKNQNSLLLKFGSLVYRIIETGVFLLLFLIFCAILQRFKILPPLYVLLSKIGFMPEKEIPIVESKSLNCPSSSENVTKPFDMKSGKQVVFEGAVNDGSLKSEKDNDDADEDDEKSLDLTTEKKKRKRGSRGGKKGRKSRIANIPNFEQSLKNLVVSEKILGYGSSGTVVFQGSFQGRPVAVKRMLIDFCDIALMEIKLLTESDDHPNVIRYYCSETTDRFLYIALELCNLNLQDLVESKNVSDENLKLQKEYNPISLLRQIASGVAHLHSLKIIHRDLKPQNILVSTSSRFTADQQTGAENLRILISDFGLCKKLDSGQSSFRTNLNNPSGTSGWRAPELLEESNNLQCQVETEHSSSRHTVVSSDSFYDPFTKRRLTRSIDIFSMGCVFYYILSKGKHPFGDKYSRESNIIRGIFSLDEMKCLHDRSLIAEATDLISQMIDHDPLKRPTAMKVLRHPLFWPKSKKLEFLLKVSDRLEIENRDPPSALLMKFDAGSDFVIPSGDWTVKFDKTFMDNLERYRKYHSSKLMDLLRALRNKYHHFMDLPEDIAELMGPVPDGFYDYFTKRFPNLLIGVYMIVKENLSDDQILREFLYS
partner: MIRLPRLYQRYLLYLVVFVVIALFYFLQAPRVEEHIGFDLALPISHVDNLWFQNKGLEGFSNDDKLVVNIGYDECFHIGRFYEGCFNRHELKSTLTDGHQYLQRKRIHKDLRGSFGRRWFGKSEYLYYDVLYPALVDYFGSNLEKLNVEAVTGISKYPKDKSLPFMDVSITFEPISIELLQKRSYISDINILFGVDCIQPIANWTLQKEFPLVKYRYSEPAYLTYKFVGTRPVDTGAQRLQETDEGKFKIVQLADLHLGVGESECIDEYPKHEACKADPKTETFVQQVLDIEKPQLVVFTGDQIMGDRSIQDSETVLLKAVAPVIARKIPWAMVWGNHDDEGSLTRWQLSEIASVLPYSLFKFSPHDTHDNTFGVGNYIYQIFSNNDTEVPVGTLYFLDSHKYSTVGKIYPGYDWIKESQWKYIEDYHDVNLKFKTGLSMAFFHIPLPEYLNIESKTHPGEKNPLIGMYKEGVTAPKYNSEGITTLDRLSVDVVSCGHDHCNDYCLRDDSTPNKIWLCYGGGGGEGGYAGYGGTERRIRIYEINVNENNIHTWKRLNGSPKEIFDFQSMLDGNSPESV

Variants of: B1
Settings: with dcr2_yeast DCR2, Q05924
In the case of S840A, the “effect of a mutation on the interaction” value is reported as “increasing interaction”.
S841A was tested, and the “effect of a mutation on the interaction” value was “increasing interaction”.
